The source of these data is the DeepSol protein solubility set.

This data set in a line: soluble on expression in E. coli; label from the status in PepcDB or PDB records.
Turning to “MSLAQMPLTPNPDQHNAIQRVLKSLHHYQAFLLDGLTGSGKTEVYLQIMHEVLKQGKQVLVLVPEIGLTPQTISRFKSRFHCDVALLHSGLNDSKRLQAWQQAKMGKASIILGTRSAIYTPLPRLGLIILDEEHDLSYKQQEGFRYHARDVALYRGYLEQCPVILGSATPSIDSYHLVEQNKLELLQLNQRAGVALLPKMHLIDLKVAKKNEGLSQILIDQIQHTLDRQEQVLIFLNRRGYAPVLVCESCGWQANCPNCDAHFTLHTQPYGYLHCHHCGTIHRLPETCPECHHHTLKTLGMGTAKVEEHLKTLFPEHDVIRVDRDSTSRVGSWQKIYDRIQHNKPMILLGTQMLAKGHHFPYVTLVAILDIDAGLLSVDVRAPERTAQLIVQVAGRAGRGEHKGHVYMQTLRPDHPMLTTLIEKDYRAVAKDMLEERKAARLPPYRYSVLIRCESRDRDYSQAFLQEIAQMLQHQAGDSIEIWGPIPAPMERKAGRYRAHMVILAQDRARLHFFLRPWWAEVIQLPRQHQLRLSIDVDPQEFNEGHHHHHH”, the “soluble on expression in E. coli” value was “soluble”.

Take “MGSDKIHHHHHHMDAPSTTPHDAVFKQFLMHAETARDFLEIHLPVELRELCDLNTLHLESGSFIEESLKGHSTDVLYSVQMQGNPGYLHVVIEHQSKPDKKMAFRMMRYSIAAMHRHLEADHDKLPLVVPILFYQGEATPYPLSMCWFDMFYSPELARRVYNSPFPLVDITITPDDEIMQHRRIAILELLQKHIRQRDLMLLLEQLVTLIDEGYTSGSQLVAMQNYMLQRGHTEQADLFYGVLRDRETGGESMMTLAQWFEEKGIEKGIQQGRQEVSQEFAQRLLSKGMSREDVAEMANLPLAEIDKVINLI”: the “soluble on expression in E. coli” value is reported as “not soluble”.

Take “MALSKVKLNDTLNKDQLLSSSKYTIQRSTGDSIDTPNYDVQKHINKLCGMLLITEDANHKFTGLIGMLYAMSRLGREDTIKILRDAGYHVKANGVDVTTHRQDINGKEMKFEVLTLASLTTEIQINIEIESRKSYKKMLKEMGEVAPEYRHDSPDCGMIILCIAALVITKLAAGDRSGLTAVIRRANNVLKNEMKRYKGLLPKDIANSFYEVFEKHPHFIDVFVHFGIAQSSTRGGSRVEGIFAGLFMNAYGAGQVMLRWGVLAKSVKNIMLGHASVQAEMEQVVEVYEYAQKLGGEAGFYHILNNPKASLLSLTQFPHFSSVVLGNAAGLGIMGEYRGTPRNQDLYDAAKAYAEQLKENGVINYSVLDLTAEELEAIKHQLNPKDNDVEL”: the “soluble on expression in E. coli” value is “soluble”.

For “MENLKNIQPREDFNWEEFEAGGVHAAVSRQEQEAAYDKTLNTIKEKEVVMGRVTAINKREVVINVGYKSEGVVPATEFRYNPELKVGDEVEVYIENQEDKKGQLVLSHRKARAARSWERVNEALEKDEIVKGYVKCRTKGGMIVDVFGIEAFLPGSQIDVRPIRDYDAFVEKTMEFKIVKINQEYKNVVVSHKVLIEAELEQQKKEII”, the “soluble on expression in E. coli” value is recorded as “not soluble”.

With “MGSDKIHHHHHHMSFTVATIAREPWPVLNRFLTWHLDQGAERIILYLDDPDDPSLPRLRGEPRIDARPCTPAFWRQIGLKQDARFTRRQRGVLSQAYHELEDGWLLVLDADEMMWMSGRTIPEALATLPDEAQSLRVRSAEQVRLSDGSEAFRTPIERAAVDRVYGDLSGLLRARFGFTYHPEGKSFHRAGQRLNMKLHWAQDANGDRTPGPVWGRAERAYLMHYAAPDYARWRAKVNWRAGASGFVLPVKEQITEIAESNDPEAGYQDLYRTLHGLTDAQALALEAEGGLLRDGPKVLDLGG”, the “soluble on expression in E. coli” value is “not soluble”.

Take “MSLTTALAPGAADALLFDLGRVVIDYDLRRTLKAWAVELGSDPHALMAKLAQNDTFHRYETGHVTDAEFFAAVRTALGLTLTDAQLREGWNAIFIGEMPGIAPLLDRAAKQLPLYALSNTNDSHIAHFSEHYAELLVHFRELFLSSRIGMRKPNGETYDFVVKAIGIAPQRIVFFDDLAENVEAARERGLYAVQVHSSDDVARTLDQLGLEGHHHHHH”: the “soluble on expression in E. coli” value was “soluble”.

On to “MGHHHHHHSHENKKAKPVPWVEKYRPKCVDEVAFQEEVVAVLKKSLEGADLPNLLFYGPPGTGKTSTILAAARELFGPELFRLRVLELNASDERGIQVVREKVKNFAQLTVSGSRSDGKPCPPFKIVILDEADSMTSAAQAALRRTMEKESKTTRFCLICNYVSRIIEPLTSRCSKFRFKPLSDKIQQQRLLDIAKKENVKISDEGIAYLVKVSEGDLRKAITFLQSATRLTGGKEITEKVITDIAGVIPAEKIDGVFAACQSGSFDKLEAVVKDLIDEGHAATQLVNQLHDVVVENNLSDKQKSIITEKLAEVDKCLADGADEHLQLISLCATVMQQLSQNC”, for which the “soluble on expression in E. coli” value is reported as “soluble”.

Turning to “MSLKKEGDATAVLIGYPSVGKSTLLNKLTGAKSEVADYDFTTLKPVPGILNYKGASIQIIDVPGIIEGAASGRGRGKEVISAVRVADLIIIVADVFNLHTIDIVKRELYEGGIRLDQKPPDVVIRKKERGGVRISSTVPLSIDEATITSVLKEYKIHSADVVIREDITIERLIDALAGNRVYIPSLTVVNKIDLMDVDVADAIKVSAEKGINLDLLKEQIYRKLEFIRVYLKPPGGKVDFSEPMILRRGATVEDICRKLHRDFVENFRYAKVWGKSVKFDGQRVGLEHVVEDGDIITIYAEGHHHHHH”, the “soluble on expression in E. coli” value is on record as “soluble”.

Take “MKFNSMFSPIDIGPMKVPNRFVVSPMCNNYANTDGTLSDTSLAYYKERALGGFGLITFEATVVDVRAKGGANKACLYSDHQIASFKRVIDVCHDAGAKISVQLQHAGPEGNSKVSGYPLRAASAIASAAGRNTPEAISREELYELIELYGEAALRAKKAGADAVEVHCAHGYLVSSFLSARTNKRVDEFGGCFENRMRLPRLIIESIRKRVGHSIAILCRINSTDGVDGGLSVQDSATVAAYLEDCGLDGLHVSRSVHIRDEYMWAPTVLHAGFSSDLVTQIKRAVSIPVITVGRFTEPHYAELMVREGRADLVAFGRQSLADPETPNKAAAGKLDELLPCIACLQGCVANMYAGKPITCLVNPLLGRESEAYLPKTPSKKVVVVGGGVGGLYAGWMAGSRGHDVTVYEASDMIGGQMRLAAYPPGKGDLTNMVRSYIKKCEQFDVEIKTNTPVTLELIQEVAPDAVIIATGATPLVLPIPGIEDAGLIHAVDLLDGKEKCGQKVLVVGGGMVGSETAAFLGEAGHDVTVVELRDEVGADVISEHRKFLMHDFDEYKIKSVTNAKVTSFFEDGVTYSLADNKEQRIDGFDSVVLAMGSRAYNPLEEAIKAIVPETYVIGDAVRARRALDATKEALDAVLQL”: the “soluble on expression in E. coli” value is recorded as “not soluble”.

For “MCISKIDMAKVKKFFKEYLFAKFQCKNRELYRQLKDYDPKDDQKYLKWEHFVEYVEQVLEALDKTSAQIIKEIYIQNKRICELPYSYSTYYAYRKKAIIELLAYLDLKI”, the “soluble on expression in E. coli” value was “soluble”.

On to “MSGGQQERHVLILNTVGGRRAIALEAAAYSLGRDESNAIVIDFETVSRQHAILLRVPVPGTTSYRYRLVDGNANGKPSTNGTFVNGKRISSHELQHGDVILFGRKAKASYLLLSMADTEFSQYLQSIAFQSIKSDLRGAKETLVGMELSGELRRTPNRELVAAGATQLHPELEHHHHHH”, for which the “soluble on expression in E. coli” value is reported as “soluble”.

As for “MKLVTISGPPSSGKTAVLAGVIRAMMASGLKVGALKYDCLATNDDDVFRAIGVPVQTGLSGNLCPDHYFVSNIEECLDWGIREGFDFLLSESAGLCNRCAPHIKGVLAVCVIDNLMGATTPKKIGPMLKYADIVVITKGDIVSQAEREVFAFQVRRANPRAKIMHVNGITGQGAGELASQFLLAPETTCLDGSRLRFSMPAALCSYCLGETRIGMEFQLGNVKKIKMSEEPARLEHHHHHH”, the “soluble on expression in E. coli” value was “soluble”.

For the sequence “MAHHHHHHMKGGKQKFDRAIHKTEGMDGALPNEVLEPLEEVYKPSLRVDVTAEPPEENENSTGTTPVTSVTPHVSTNIFVAGLPPSWDENDLRKKFQEFGEIISTRLVRQRHFAFVMFRRPESAHAAINATHLTHPTPNSSMFLHVSIAMHDEGVDEIPNDRIFIRGLPQWANKDHLRHCFSRFGSIVDSAVLMNPLGQCKGSGFVQFSSIDEATEAIKARKTIRIENWDAELEIKYSETAEVRQQRQERNKNRQRHSPKYGQHQLQYQLFNSSASVVSPIPAFPVLGMSAPFPFFYPRPALSPAASPHIIYSPMVPSPVVPVYPSPPVVFKSKLDLFPSSGDLLFTGVSLTESTLLSLLQCYGKVESKDIFDDAGAAVRMVDRGLHAIIVQQLNGTIFPDGKVMSVVLYP”, the “soluble on expression in E. coli” value is given as “not soluble”.

Regarding “MGSDKIHHHHHHMNKIAVIGKVFVDIKGTSFAPLHKDAKNVGDITFSNGGTGRNVAQNLAVLGNDVRFISTVTNDQIGVGVLEELKSYGANVDHVEMLEDHGMGMWLAVMDNEGDLQTSISKQPDAKLLEEAILRQSVYALDGVDAVAIDLDLSVTVLERLIHICRKMELPLYGVCGHLSVIERNRHLLQGFTGFICSREEAEILSDLSIVTVEDAIHVANELAKKGAPFTVVTMSELGAVYVDRRTATSGHVGTKKVKVVDSTGAGDSFFSAVLSELTESKRAEEALQLGMKVAAQVIASTENGLIPEMLETLR”, the “soluble on expression in E. coli” value is on record as “not soluble”.

With “MTDPSQMQAEELLSFLEEGGTLKMLHDVSADTIEHIYAVGYNFFQSGKIEQAAKVFQLLSMLDHYQARFFIGLGAARQELGEYLQAIDAYSYAALVDINDPRPPFHSAECHLKLEQLTEAESGFYSAKEMSAGKSQYADLHQRAGIMLEAVRNKRSNLEHHHHHH”, the “soluble on expression in E. coli” value was “soluble”.

“AQRVKDRPDGDTRRSELTMKLINKRGAVRERKLISYSIDMGKDKKDKKTIMFFLYPGDVKGTGFLTWDYDQIGKDDDKWLYLPAMKKTRRISGASAKKDYFMGSDFTYDDMGSRNVDEDTHKLLGEETFDGHKCWKLESTSKDQRDVFSKKIAWIRQDCLIPVRVEYYDRMNRLHRLLELSDIAQVDGFWMAQKMNMSNVQTGHRTVLEIKKPEFNRPIDESKFTVTSLEK”: the “soluble on expression in E. coli” value was “not soluble”.

“MKQLATPFQEYSQKYENIRLERDGGVLLVTVHTEGKSLVWTSTAHDELAYCFHDIACDRENKVVILTGTGPSFCNEIDFTSFNLGTPHDWDEIIFEGQRLLNNLLSIEVPVIAAVNGPVTNHPEIPVMSDIVLAAESATFQDGPHFPSGIVPGDGAHVVWPHVLGSNRGRYFLLTGQELDARTALDYGAVNEVLSEQELLPRAWELARGIAEKPLLARRYARKVLTRQLRRVMEADLSLGLAHEALAAIDLGMESEQ”: the “soluble on expression in E. coli” value is “soluble”.

Consider “MDRSAEFRKWKAQCLSKADLSRKGSVDEDVVELVQFLNMRDQFFTTSSCAGRILLLDRGINGFEVQKQNCCWLLVTHKLCVKDDVIVALKKANGDATLKFEPFVLHVQCRQLQDAQILHSMAIDSGFRNSGITVGKRGKTMLVVRSTHGLEVPLSHKGKLMVTEEYIDFLLNVANQKMEENKKRIERFYNCLQHALERETMTNLHPKIKEKNNSSYIHKKKRNPEKTRAQCITKESDEELENDDDDDLGINVTIFPEDY”, for which the “soluble on expression in E. coli” value is “not soluble”.

Turning to “MRTITFNELRKIKDSLPSGSMHRIADELGLHVDTVRNFFGGHNFKEGKSVGIHLEPGPDGGLVMLDDTTVLDRALKILDEINMSMQKEQATEPMQI”, the “soluble on expression in E. coli” value is “not soluble”.

On to “MFYKFLLFDLDHTLLDFDAAEDVALTQLLKEEGVADIQAYKDYYVPMNKALWKDLELKKISKQELVNTRFSRLFAHFGQEKDGSFLAQRYQFYLAQQGQTLSGAHDLLDSLIERDYNLYAATNGITAIQTGRLAQSGLAPYFNQVFISEQLQTQKPDALFYEKIGQQIAGFSKEKTLMIGDSLTADIQGGNNAGIDTIWYNPHHLENHTQAQPTYEVYSYQDLLDCLDKNILEKITF”, for which the “soluble on expression in E. coli” value is on record as “not soluble”.
